Results from patent publication US20100285526.

Tests used:
[1] = system: GST-IL11(A) fusion protein [GST: P08515]
His-IL11 fusion protein = system: T1, His-IL11 fusion protein
T1 sequence: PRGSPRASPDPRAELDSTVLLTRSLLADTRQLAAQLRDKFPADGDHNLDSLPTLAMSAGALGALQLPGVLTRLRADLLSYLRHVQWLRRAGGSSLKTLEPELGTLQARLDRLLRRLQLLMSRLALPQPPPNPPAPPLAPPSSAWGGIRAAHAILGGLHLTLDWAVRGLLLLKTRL

[2] = system: GST-Thymosin β4 fusion protein [GST: P08515]
[3] = system: GST-IL11(LV-) fusion protein [GST: P08515]
[4] = system: MBP-IL11 fusion protein [MBP: P0AEX9]
[5] = system: GST-IL6 fusion protein [GST: P08515]

Substance | thrombin cleavage of the fusion protein, SDS-PAGE time course [1] | thrombin cleavage of the fusion protein, SDS-PAGE time course (His-IL11 fusion protein) | choice of cleavage site within the linker [1] | integrity of released IL-11, MALDI-TOF/MS [1] | integrity of released thymosin β4, MALDI-TOF/MS [2] | thrombin cleavage of the fusion protein, SDS-PAGE time course [2] | thrombin cleavage of the fusion protein, SDS-PAGE time course [3] | thrombin cleavage of the fusion protein, SDS-PAGE time course [4] | thrombin cleavage of the fusion protein, SDS-PAGE time course [5]
bovine thrombin | The GST fusion partner was efficiently cleaved by both bovine and human thrombin in the concentration ranges and the time points tested |  |  |  |  |  |  |  | 
human thrombin | The GST fusion partner was efficiently cleaved by both bovine and human thrombin in the concentration ranges and the time points tested |  |  |  |  |  |  |  | 
thrombin (species not stated) |  | The fusion protein His-IL11 (22 kDa) gradually disappeared, and the amount of IL11 (18 kDa) increased as reaction time passed | thrombin cleavage occurs not at Arg↓Gly but at Arg↓Ala | it was confirmed that intact IL-11 protein was generated after thrombin cleavage of GST-IL11(A) | it was confirmed that intact thymosin β4 protein was generated after thrombin cleavage of GST-Thymosin β4 | The fusion protein GST-Thymosin β4 (31 kDa) gradually disappeared, and the amount of thymosin β4 (5 kDa) increased as reaction time passed | The fusion protein GST-IL11(LV-) (44 kDa) gradually disappeared, and the amount of IL-11(LV-) (18 kDa) increased as reaction time passed | The fusion protein MBP-IL11 (60 kDa) gradually disappeared, and the amount of IL11 (18 kDa) increased as reaction time passed | The fusion protein GST-IL6 (46 kDa) gradually disappeared, and the amount of IL-6 (22 kDa) increased as reaction time passed
